Among the data in publication PMC5780041, “Endosomal Rab cycles regulate Parkin-mediated mitophagy” (eLife, 2018) are Kd values, retold here.

The target of assay [1] is T1, 1x human ubiquitin (C-terminal His-tagged) (human, UniProt P0CG48 1-76).
T1 construct: human ubiquitin, the 76-residue mature product (primers from the ATG to the codons of the last two glycines); In pET21a(+) between BamHI and XhoI; also called 1x ubiquitin; 1 × Ub; source: E. coli BL21-CodonPlus(DE3)-RIL, purified (Ni-NTA; for ITC also Superdex 75)
Description: ITC; 18 injections of 2 μl of 300 μM ubiquitin or phosphorylated ubiquitin into 200 μl of 30 μM GST-mRABGEF1 in the cell; 25°C; TBS buffer; single site binding model. Particulars: both partners purified.

The target in assay [2] is T2, S65 phosphorylated ubiquitin produced in bacterial cells (human, UniProt P0CG48 1-76, S65 phosphorylated).
T2 construct: human ubiquitin, the 76-residue mature product, from pET21a(+)/1xUb; Same construct as m13, phosphorylated in the bacteria by co-expressed membrane-anchored TcPINK1; also called monomeric phosphorylated ubiquitin; source: Superdex 75)
Described as above. Particulars: both partners purified.

B1: GST-tagged mouse RABGEF1 (WT) 1-74aa (domain or fragment)
chain: not shown
notes: Expressed with 50 μM ZnCl2 in the medium; also called GST-mRABGEF1 (WT); GST-mRABGEF1 WT; source: E. coli BL21-CodonPlus(DE3)-RIL, purified (glutathione-Sepharose 4B; for ITC also Superdex 75); not shown: GST, N-terminal, kept
A word on the Kd: it is the constant that tells how readily two partners part at equilibrium. Lower therefore signals tighter binding. Regarding B1, the results for the Kd in assay [1] and in assay [2] were 2.2 µM and 5.6 µM, respectively.
